Data taken from paper PMC6521718 (Molecular cell, 2018).
Where a chain is given by its changes, count along the chain named. Like-named read-outs stand apart in the source and are kept apart here.

Key:
cryo-EM structure = target: the molecule itself; assay: cryo-EM structure
Csy complex Cas8f N250A = target: T1, Csy complex Cas8f N250A (Pseudomonas aeruginosa PA14, UniProt Q02ML9;Q02MM0;Q02MM1;Q02MM2 1-434;1-327;1-342;1-187, N250A); assay: EMSA
T1 sequence 1: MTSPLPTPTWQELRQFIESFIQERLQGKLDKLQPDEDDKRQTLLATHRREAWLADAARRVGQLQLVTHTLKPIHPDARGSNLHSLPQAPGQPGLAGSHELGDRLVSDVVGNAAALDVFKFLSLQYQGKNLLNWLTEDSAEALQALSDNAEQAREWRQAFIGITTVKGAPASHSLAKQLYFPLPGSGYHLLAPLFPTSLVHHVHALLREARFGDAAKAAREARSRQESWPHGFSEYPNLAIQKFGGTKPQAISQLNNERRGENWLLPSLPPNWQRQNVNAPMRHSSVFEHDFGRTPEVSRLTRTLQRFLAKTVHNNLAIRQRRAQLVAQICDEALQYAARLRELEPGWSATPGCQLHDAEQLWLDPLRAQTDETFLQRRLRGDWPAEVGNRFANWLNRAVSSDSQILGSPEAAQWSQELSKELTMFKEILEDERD
T1 sequence 2: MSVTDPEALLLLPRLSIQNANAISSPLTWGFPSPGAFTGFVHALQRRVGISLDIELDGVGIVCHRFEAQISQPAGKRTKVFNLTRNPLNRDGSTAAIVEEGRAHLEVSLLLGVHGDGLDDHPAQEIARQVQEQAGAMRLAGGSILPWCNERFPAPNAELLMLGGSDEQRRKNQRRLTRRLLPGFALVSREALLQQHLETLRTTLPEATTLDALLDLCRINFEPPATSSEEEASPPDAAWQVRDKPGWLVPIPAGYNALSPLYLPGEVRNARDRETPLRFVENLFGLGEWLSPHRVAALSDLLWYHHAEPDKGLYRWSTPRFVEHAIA
T1 sequence 3: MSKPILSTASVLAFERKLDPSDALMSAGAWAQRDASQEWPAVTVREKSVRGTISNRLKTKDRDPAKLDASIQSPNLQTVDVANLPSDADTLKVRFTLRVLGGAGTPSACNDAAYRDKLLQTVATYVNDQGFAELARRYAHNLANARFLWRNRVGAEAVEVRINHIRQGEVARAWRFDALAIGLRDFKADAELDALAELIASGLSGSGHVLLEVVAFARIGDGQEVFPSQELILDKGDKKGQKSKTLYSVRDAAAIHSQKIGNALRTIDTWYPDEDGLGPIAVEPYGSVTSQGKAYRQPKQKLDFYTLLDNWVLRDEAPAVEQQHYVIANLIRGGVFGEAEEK
T1 sequence 4: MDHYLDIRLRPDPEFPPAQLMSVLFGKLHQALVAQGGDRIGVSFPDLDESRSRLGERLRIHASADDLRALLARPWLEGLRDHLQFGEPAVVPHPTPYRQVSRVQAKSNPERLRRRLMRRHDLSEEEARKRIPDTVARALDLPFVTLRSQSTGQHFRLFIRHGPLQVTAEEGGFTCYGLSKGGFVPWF

[1] = target: T2, Csy complex (type I-F, wild type);Cas1-2/3 complex (Pseudomonas aeruginosa PA14;Pseudomonas …, UniProt Q02ML9;Q02MM0;Q02MM1;Q02MM2;Q02ML7;Q02ML8 1-434;1-327;1-342;1-187;1-324;1-1076, |); assay: EMSA
T2 sequence (Q02ML7 whole entry, chain 5 of 2): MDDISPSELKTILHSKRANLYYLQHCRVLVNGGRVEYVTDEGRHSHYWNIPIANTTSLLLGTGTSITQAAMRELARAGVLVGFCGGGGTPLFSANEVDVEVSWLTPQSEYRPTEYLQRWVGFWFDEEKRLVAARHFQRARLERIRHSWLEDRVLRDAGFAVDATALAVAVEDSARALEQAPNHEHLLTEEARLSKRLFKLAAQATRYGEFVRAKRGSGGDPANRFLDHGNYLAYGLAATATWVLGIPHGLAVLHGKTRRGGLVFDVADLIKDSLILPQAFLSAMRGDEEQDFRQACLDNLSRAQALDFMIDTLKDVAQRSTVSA
T2 sequence (Q02ML8 whole entry, chain 6 of 2): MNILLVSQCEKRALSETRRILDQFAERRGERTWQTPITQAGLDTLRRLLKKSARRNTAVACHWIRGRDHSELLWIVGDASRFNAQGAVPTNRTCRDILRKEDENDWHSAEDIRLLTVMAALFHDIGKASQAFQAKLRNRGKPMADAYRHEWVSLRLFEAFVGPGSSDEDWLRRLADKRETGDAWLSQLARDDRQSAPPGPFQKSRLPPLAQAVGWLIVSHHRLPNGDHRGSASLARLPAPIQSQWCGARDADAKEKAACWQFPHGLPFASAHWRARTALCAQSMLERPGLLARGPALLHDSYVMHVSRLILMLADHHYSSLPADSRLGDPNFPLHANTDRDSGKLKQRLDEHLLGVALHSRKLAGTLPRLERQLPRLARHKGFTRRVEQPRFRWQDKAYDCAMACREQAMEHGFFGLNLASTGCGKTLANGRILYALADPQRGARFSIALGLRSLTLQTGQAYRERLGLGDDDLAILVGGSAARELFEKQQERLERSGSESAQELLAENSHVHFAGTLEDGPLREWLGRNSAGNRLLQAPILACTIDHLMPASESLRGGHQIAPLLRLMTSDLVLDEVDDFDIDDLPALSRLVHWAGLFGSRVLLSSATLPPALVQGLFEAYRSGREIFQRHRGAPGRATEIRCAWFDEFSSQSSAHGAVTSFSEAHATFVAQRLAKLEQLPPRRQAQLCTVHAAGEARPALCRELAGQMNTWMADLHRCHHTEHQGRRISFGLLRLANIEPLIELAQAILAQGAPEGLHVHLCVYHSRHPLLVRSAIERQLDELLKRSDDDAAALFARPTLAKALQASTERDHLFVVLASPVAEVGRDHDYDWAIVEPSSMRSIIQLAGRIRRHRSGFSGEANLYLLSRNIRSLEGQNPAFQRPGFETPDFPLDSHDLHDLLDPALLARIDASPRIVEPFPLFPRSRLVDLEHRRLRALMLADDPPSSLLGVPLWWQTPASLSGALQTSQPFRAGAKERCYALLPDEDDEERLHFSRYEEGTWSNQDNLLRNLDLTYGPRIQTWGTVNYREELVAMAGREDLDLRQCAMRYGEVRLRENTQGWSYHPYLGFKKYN

[2] = target: T3, Csy complex (type I-F, wild type) (Pseudomonas aeruginosa PA14, UniProt Q02ML9;Q02MM0;Q02MM1;Q02MM2 1-434;1-327;1-342;1-187); assay: cryo-EM
T3 sequence 1: T1 sequence 1 with A250N
T3 sequence 2: T1 sequence 2
T3 sequence 3: T1 sequence 3
T3 sequence 4: T1 sequence 4

[3] = target: T3, Csy complex (type I-F, wild type); assay: EMSA
[4] = target: T2, Csy complex (type I-F, wild …); assay: EMSA; remark: listed apart in the source
[5] = target: T4, Csy complex Cas8f RBC mutant (Pseudomonas aeruginosa PA14, UniProt Q02ML9;Q02MM0;Q02MM1;Q02MM2 1-434;1-327;1-342;1-187, R282E;H283D;R299E;R302E); assay: EMSA
T4 sequence 1: T1 sequence 1 with A250N, R282E, H283D, R299E, R302E
T4 sequence 2: T1 sequence 2
T4 sequence 3: T1 sequence 3
T4 sequence 4: T1 sequence 4

B1: Cas7f, backbone subunit of the Csy complex (natural protein, Pseudomonas aeruginosa (strain PA14))
chain: T1 sequence 3
- binding result (cryo-EM structure): binds

B2: 80-bp dsDNA target, GG PAM (dsDNA)
DNA 1: GCTGTACGTCACTATCGAAGCAATACAGGTAGACGCGGACATCAAGCCCGCCGTGAAGGTGCAGCTTCTCTACAGAGTGC
DNA 2: GCACTCTGTAGAGAAGCTGCACCTTCACGGCGGGCTTGATGTCCGCGTCTACCTGTATTGCTTCGATAGTGACGTACAGC
- binding signal (Csy complex Cas8f N250A): > 1000 fold decrease in affinity vs WT
- binding result [1]: binds
- binding result [2]: binds

B3: 80-bp target, TT PAM, bubble +1 to +10 (dsDNA)
DNA 1: B2 DNA 1 with G58T, G59T
DNA 2: GCACTCTGTAGAGAAGCTGCAAAAAGTGCCGCCGCTTGATGTCCGCGTCTACCTGTATTGCTTCGATAGTGACGTACAGC
- binding result [3]: binds
- binding result [4]: binds

B4: 80-bp target, AA PAM, bubble +1 to +10 (dsDNA)
DNA 1: B2 DNA 1 with G58A, G59A
DNA 2: B3 DNA 2 with A22T, A23T
- binding result [3]: binds
- binding result [4]: binds

B5: 80-bp target, CC PAM, bubble +1 to +10 (dsDNA)
DNA 1: B2 DNA 1 with G58C, G59C
DNA 2: B3 DNA 2 with A22G, A23G
- binding result [3]: binds
- binding result [4]: binds

B6: 80-bp target, GG PAM, bubble +1 to +10 (dsDNA)
DNA 1: B2 DNA 1
DNA 2: B3 DNA 2 with A22C, A23C
- binding result [5]: binds
